Test results: publication PMC11446282
Read-outs that look alike come from different tables or passages of the source.

Legend:
B55α interactors = test: MS analysis of B55α WT, V228A, I284A, S287A and D340A immunopurifications; type: binding, human; conditions: log2 ratio of interactor abundance, 4 replicates each, normalised to bait B55α; for log2_ratio_D340_WT: B55α D340A vs WT immunopurification; for log2_ratio I284_WT: B55α I284A vs WT immunopurification; for log2_ratio S287_WT: B55α S287A vs WT immunopurification; for log2_ratio V228_WT: B55α V228A vs WT immunopurification
Procedure: (§1) Standard cloning techniques were used throughout. Point mutations were introduced by whole plasmid polymerase chain reaction (PCR). All constructs were fully sequenced. Synthetic DNA was purchased from GeneArt, Life Technologies and cloned into pcDNA5/FRT/TO (Invitrogen) expression vector containing YFP, resulting in the indicated YFP fusion proteins. These constructs were transiently transfected into HeLa cells 24 hours before harvesting cells. Cells were lysed in lysis buffer [50 mM tris-HCl (pH 7.5), 50 mM NaCl, 1 mM EDTA, 1 mM […], and 0.1% NP-40]. Complexes were immunoprecipitated at 4°C in lysis buffer with green fluorescent protein (GFP)–Trap (ChromoTek) and washed in lysis buffer. Precipitated protein complexes were washed three times in lysis buffer, eluted in 2× SDS sample buffer, and subjected to Western blotting or MS as indicated.
Pull-downs were analyzed on a Q-Exactive Plus quadrupole or Fusion Orbitrap Lumos mass spectrometer (Thermo Fisher Scientific) equipped with Easy-nLC 1000 or […] (Thermo Fisher Scientific) and nanospray source (Thermo Fisher Scientific).
Static modifications included carbamidomethylcysteine, and variable modifications included oxidized methionine and STY phosphorylation. Searches were filtered using orthogonal measures including mass measurement accuracy (±3 parts per million), Xcorr for charges from +2 to +4, and dCn targeting a <1% false discovery rate at the peptide level. Quantification of LC-MS/MS spectra was performed using MassChroQ ([57]) and the iBAQ method ([58]). All data were analyzed using R 4.3.0. Missing values were imputed from a normal distribution. […] In each dataset, the abundance of the protein of interest was normalized to be equal across all samples. Statistical analyses were done using a two-tailed Student’s t test.

PP2A-B55 isoforms = type: binding, human; conditions: MS, n = 4; for log2_ratio WT_M: YFP-PME1 wild-type versus mutant IP; for log2_ratio WT_C: wild-type versus control IP
Procedure: as §1
Pull-downs were analyzed on a Q-Exactive Plus quadrupole or Fusion Orbitrap Lumos mass spectrometer (Thermo Fisher Scientific) equipped with Easy-nLC 1000 or […] (Thermo Fisher Scientific) and nanospray source (Thermo Fisher Scientific). Peptides were resuspended in 5% methanol/1% formic acid and loaded onto a trap column [1 cm in length, 100 μm in inner diameter, ReproSil, C18 AQ 5-μm 120-Å pore (Dr. Maisch, Ammerbuch, Germany)] vented to waste via a micro-tee and eluted across a fritless analytical resolving column (35 cm in length, 100 μm in inner diameter, ReproSil, C18 AQ 3-μm 120-Å pore) pulled in-house (Sutter P-2000, Sutter Instruments, San Francisco, CA) with a 45-min gradient of 5 to 30% liquid chromatography–MS (LC-MS) buffer B (LC-MS buffer A: 0.0625% formic acid and 3% acetonitrile (ACN); LC-MS buffer B: 0.0625% formic acid, 95% ACN Q-Exactive Plus quadrupole or 0.0625% formic acid and 80% ACN Fusion Orbitrap Lumos mass).
Static modifications included carbamidomethylcysteine, and variable modifications included oxidized methionine and STY phosphorylation. Searches were filtered using orthogonal measures including mass measurement accuracy (±3 parts per million), Xcorr for charges from +2 to +4, and dCn targeting a <1% false discovery rate at the peptide level. Quantification of LC-MS/MS spectra was performed using MassChroQ ([57]) and the iBAQ method ([58]). All data were analyzed using R 4.3.0. Missing values were imputed from a normal distribution. To be included in further analysis, proteins had to be identified with more than 1 total peptide and quantified in two or more replicates of each sample. In each dataset, the abundance of the protein of interest was normalized to be equal across all samples. Statistical analyses were done using a two-tailed Student’s t test.

[1] = prey 2ABA_HUMAN (PPP2R2A, B55 alpha)
[2] = prey 2ABB_HUMAN (PPP2R2B, B55 beta)
[3] = prey 2ABD_HUMAN (PPP2R2D, B55 delta)
[4] = prey 2ABG_HUMAN (PPP2R2C, B55 gamma)

Molecule	log2_ratio_D340_WT (B55α interactors)	log2_ratio I284_WT (B55α interactors)	log2_ratio S287_WT (B55α interactors)	log2_ratio V228_WT (B55α interactors)	log2_ratio WT_M (PP2A-B55 isoforms; prey 2AAA_HUMAN (PPP2R1A))	log2_ratio WT_C (PP2A-B55 isoforms; prey 2AAA_HUMAN (PPP2R1A))	log2_ratio WT_M (PP2A-B55 isoforms; prey 2AAB_HUMAN (PPP2R1B))	log2_ratio WT_C (PP2A-B55 isoforms; prey 2AAB_HUMAN (PPP2R1B))	log2_ratio WT_M (PP2A-B55 isoforms; [1])	log2_ratio WT_C (PP2A-B55 isoforms; [1])	log2_ratio WT_M (PP2A-B55 isoforms; [2])	log2_ratio WT_C (PP2A-B55 isoforms; [2])	log2_ratio WT_M (PP2A-B55 isoforms; [3])	log2_ratio WT_C (PP2A-B55 isoforms; [3])	log2_ratio WT_M (PP2A-B55 isoforms; [4])	log2_ratio WT_C (PP2A-B55 isoforms; [4])	log2_ratio WT_M (PP2A-B55 isoforms; prey PP2AA_HUMAN (PPP2CA))	log2_ratio WT_C (PP2A-B55 isoforms; prey PP2AA_HUMAN (PPP2CA))	log2_ratio WT_M (PP2A-B55 isoforms; prey PP2AB_HUMAN (PPP2CB))	log2_ratio WT_C (PP2A-B55 isoforms; prey PP2AB_HUMAN (PPP2CB))
BAG2_HUMAN (protein, UniProt O95816 2-211, looked up) BAG family molecular …: AQAKINAKANEGRFCRSSSMADRSSRLLESLDQLELRVEALREAATAVEQEKEILLEMIHSIQNSQDMRQISDGEREELNLTANRLMGRTLTVEVSVETIRNPQQQESLKHATRIIDEVVNKFLDDLGNAKSHLMSLYSACSSEVPHGPVDQKFQSIVIGCALEDQKKIKRRLETLLRNIENSDKAIKLLEHSKGAGSKTLQQNAESRFN	-0.69	-0.54	0.19	-0.43																
OFD1_HUMAN (protein, UniProt O75665 1-1012, looked up) Centriole and centriolar …: MMAQSNMFTVADVLSQDELRKKLYQTFKDRGILDTLKTQLRNQLIHELMHPVLSGELQPRSISVEGSSLLIGASNSLVADHLQRCGYEYSLSVFFPESGLAKEKVFTMQDLLQLIKINPTSSLYKSLVSGSDKENQKGFLMHFLKELAEYHQAKESCNMETQTSSTFNRDSLAEKLQLIDDQFADAYPQRIKFESLEIKLNEYKREIEEQLRAEMCQKLKFFKDTEIAKIKMEAKKKYEKELTMFQNDFEKACQAKSEALVLREKSTLERIHKHQEIETKEIYAQRQLLLKDMDLLRGREAELKQRVEAFELNQKLQEEKHKSITEALRRQEQNIKSFEETYDRKLKNELLKYQLELKDDYIIRTNRLIEDERKNKEKAVHLQEELIAINSKKEELNQSVNRVKELELELESVKAQSLAITKQNHMLNEKVKEMSDYSLLKEEKLELLAQNKLLKQQLEESRNENLRLLNRLAQPAPELAVFQKELRKAEKAIVVEHEEFESCRQALHKQLQDEIEHSAQLKAQILGYKASVKSLTTQVADLKLQLKQTQTALENEVYCNPKQSVIDRSVNGLINGNVVPCNGEISGDFLNNPFKQENVLARMVASRITNYPTAWVEGSSPDSDLEFVANTKARVKELQQEAERLEKAFRSYHRRVIKNSAKSPLAAKSPPSLHLLEAFKNITSSSPERHIFGEDRVVSEQPQVGTLEERNDVVEALTGSAASRLRGGTSSRRLSSTPLPKAKRSLESEMYLEGLGRSHIASPSPCPDRMPLPSPTESRHSLSIPPVSSPPEQKVGLYRRQTELQDKSEFSDVDKLAFKDNEEFESSFESAGNMPRQLEMGGLSPAGDMSHVDAAAAAVPLSYQHPSVDQKQIEEQKEEEKIREQQVKERRQREERRQSNLQEVLERERRELEKLYQERKMIEESLKIKIKKELEMENELEMSNQEIKDKSAHSENPLEKYMKIIQQEQDQESADKSSKKMVQEGSLVDTLQSSDKVESLTGFSHEELDDSW	2.04	1.52	0.73	-2.22																
PME1 wt (protein, UniProt Q9Y570 2-386, looked up) Protein phosphatase …: SALEKSMHLGRLPSRPPLPGSGGSQSGAKMRMGPGRKRDFSPVPWSQYFESMEDVEVENETGKDTFRVYKSGSEGPVLLLLHGGGHSALSWAVFTAAIISRVQCRIVALDLRSHGETKVKNPEDLSAETMAKDVGNVVEAMYGDLPPPIMLIGHSMGGAIAVHTASSNLVPSLLGLCMIDVVEGTAMDALNSMQNFLRGRPKTFKSLENAIEWSVKSGQIRNLESARVSMVGQVKQCEGITSPEGSKSIVEGIIEEEEEDEEGSESISKRKKEDDMETKKDHPYTWRIELAKTEKYWDGWFRGLSNLFLSCPIPKLLLLAGVDRLDKDLTIGQMQGKFQMQVLPQCGHAVHEDAPDKVAEAVATFLIRHRFAEPIGGFQCVFPGC					1.05	8.03	1.40	6.19	8.62	8.40	4.68	4.02	5.74	6.24	6.08	5.83	0.66	9.04	0.69	8.00
PDE8B_HUMAN (protein, UniProt O95263 1-885, looked up) High affinity cAMP-specific …: MGCAPSIHVSQSGVIYCRDSDESSSPRQTTSVSQGPAAPLPGLFVQTDAADAIPPSRASGPPSVARVRRARTELGSGSSAGSAAPAATTSRGRRRHCCSSAEAETQTCYTSVKQVSSAEVRIGPMRLTQDPIQVLLIFAKEDSQSDGFWWACDRAGYRCNIARTPESALECFLDKHHEIIVIDHRQTQNFDAEAVCRSIRATNPSEHTVILAVVSRVSDDHEEASVLPLLHAGFNRRFMENSSIIACYNELIQIEHGEVRSQFKLRACNSVFTALDHCHEAIEITSDDHVIQYVNPAFERMMGYHKGELLGKELADLPKSDKNRADLLDTINTCIKKGKEWQGVYYARRKSGDSIQQHVKITPVIGQGGKIRHFVSLKKLCCTTDNNKQIHKIHRDSGDNSQTEPHSFRYKNRRKESIDVKSISSRGSDAPSLQNRRYPSMARIHSMTIEAPITKVINIINAAQENSPVTVAEALDRVLEILRTTELYSPQLGTKDEDPHTSDLVGGLMTDGLRRLSGNEYVFTKNVHQSHSHLAMPITINDVPPCISQLLDNEESWDFNIFELEAITHKRPLVYLGLKVFSRFGVCEFLNCSETTLRAWFQVIEANYHSSNAYHNSTHAADVLHATAFFLGKERVKGSLDQLDEVAALIAATVHDVDHPGRTNSFLCNAGSELAVLYNDTAVLESHHTALAFQLTVKDTKCNIFKNIDRNHYRTLRQAIIDMVLATEMTKHFEHVNKFVNSINKPMAAEIEGSDCECNPAGKNFPENQILIKRMMIKCADVANPCRPLDLCIEWAGRISEEYFAQTDEEKRQGLPVVMPVFDRNTCSIPKSQISFIDYFITDMFDAWDAFAHLPALMQHLADNYKHWKTLDDLKCKSLRLPSDS	3.81	0.83	4.46	5.00																
